Data from the Human Domainome abundance scans (Beltran et al. 2025).
± gives the uncertainty stated by the source.

B1: Androgen receptor, residues 557 to 632; numbered along this chain, P10275 (parent)
chain: QKTCLICGDEASGCHYGALTCGSCKVFFKRAAEGKQKYLCASRNDCTIDKFRRKNCPSCRLRKCYEAGMTLGARKL

Variants of: B1
Assay: abundance fitness (aPCA) (normalised: wild type 0, dead -1); higher = more abundant; growth selection in yeast, the domain comes from the species named
Conditions: Homo sapiens

Variant	abundance fitness
QKTCLICGQEASGCHYGALTCGSCKVFFKRAAEGKQKYLCASRNDCTIDKFRRKNCPSCRLRKCYEAGMTLGARKL [D9Q]	-0.071 ± 0.14
QKTCLICGDEASGCHYGALTCGSCKVFFKRAAEGKQKYLCASRNDCTIDKFRRKNCPSCRLRKNYEAGMTLGARKL [C64N]	-0.505 ± 0.45
QKTCLICGDEASGCHYGALTCGSCKVFFKRAAEGKQKYLCASRNDCTIDKFRRKNCPSCRLRYCYEAGMTLGARKL [K63Y]	-0.704 ± 0.2
QKTCLICGDEASGCHYGALTCGSCKVFFKRAWEGKQKYLCASRNDCTIDKFRRKNCPSCRLRKCYEAGMTLGARKL [A32W]	-0.088 ± 0.061
QKTCLICGDEASGCHYGALTCGSCKVFFKRAAEGKQKVLCASRNDCTIDKFRRKNCPSCRLRKCYEAGMTLGARKL [Y38V]	-0.092 ± 0.063
QKTCLICGDEASGCHYGALTCGSCKVFFKIAAEGKQKYLCASRNDCTIDKFRRKNCPSCRLRKCYEAGMTLGARKL [R30I]	-0.067 ± 0.058
QKTCLICGDEASGCHYGALTCGSCKVFFKRAAEGKQKYNCASRNDCTIDKFRRKNCPSCRLRKCYEAGMTLGARKL [L39N]	-0.008 ± 0.038
QKTCLICGDEASGCHYGALTCGSCKVFFKRAAEGKQPYLCASRNDCTIDKFRRKNCPSCRLRKCYEAGMTLGARKL [K37P]	0.006 ± 0.088
TKTCLICGDEASGCHYGALTCGSCKVFFKRAAEGKQKYLCASRNDCTIDKFRRKNCPSCRLRKCYEAGMTLGARKL [Q1T]	0.106 ± 0.11
QKTCLICGDEASGNHYGALTCGSCKVFFKRAAEGKQKYLCASRNDCTIDKFRRKNCPSCRLRKCYEAGMTLGARKL [C14N]	-0.351 ± 0.26
QKTCLICGDEASGCHYGALTCGSCKVFFKRAAEGKQKYLCASRNDCTIDKFRRKNCPSCRLRKCYEAGMTLGLRKL [A73L]	-0.176 ± 0.073
QKTCLILGDEASGCHYGALTCGSCKVFFKRAAEGKQKYLCASRNDCTIDKFRRKNCPSCRLRKCYEAGMTLGARKL [C7L]	-0.886 ± 0.2
QKTCLICGDEASDCHYGALTCGSCKVFFKRAAEGKQKYLCASRNDCTIDKFRRKNCPSCRLRKCYEAGMTLGARKL [G13D]	-0.198 ± 0.13
QKTCLICGDEASGCHYGALTCGSCKVFFKRAAEGKQKYLCASRNDCTIDKFRRKNCPSCRLRKCYEAGMTLVARKL [G72V]	-0.062 ± 0.075
QKTCAICGDEASGCHYGALTCGSCKVFFKRAAEGKQKYLCASRNDCTIDKFRRKNCPSCRLRKCYEAGMTLGARKL [L5A]	-0.109 ± 0.052
QKTCLICGDEASGCHYGALTCGSCKVFFKRAAEGKQKYLCASRNDCTIDKFRRKNCPSCRLRKCLEAGMTLGARKL [Y65L]	-0.081 ± 0.073
LKTCLICGDEASGCHYGALTCGSCKVFFKRAAEGKQKYLCASRNDCTIDKFRRKNCPSCRLRKCYEAGMTLGARKL [Q1L]	-0.027 ± 0.086
QKTCLICGDEASGCHYGALTCGSCKVFFKRAAEGKQKYLCASRNDCTIFKFRRKNCPSCRLRKCYEAGMTLGARKL [D49F]	-0.613 ± 0.17
QKTCLICGDEASGCHYGALTCGSCKVFFKKAAEGKQKYLCASRNDCTIDKFRRKNCPSCRLRKCYEAGMTLGARKL [R30K]	0.103 ± 0.087
QKTCLICGREASGCHYGALTCGSCKVFFKRAAEGKQKYLCASRNDCTIDKFRRKNCPSCRLRKCYEAGMTLGARKL [D9R]	-0.378 ± 0.073
QKTCLICGDEASGCHYGALTCGSCKVFFKRAAEGKQKYLCASRNDCTIDKFRRKNCPSCRLRKVYEAGMTLGARKL [C64V]	-0.879 ± 0.27
QKTCLICGDEASGCHYGALTCGSCKVFFKRAAKGKQKYLCASRNDCTIDKFRRKNCPSCRLRKCYEAGMTLGARKL [E33K]	0.013 ± 0.075
QKTCLICGDEASGCPYGALTCGSCKVFFKRAAEGKQKYLCASRNDCTIDKFRRKNCPSCRLRKCYEAGMTLGARKL [H15P]	-0.27 ± 0.13
QKTCPICGDEASGCHYGALTCGSCKVFFKRAAEGKQKYLCASRNDCTIDKFRRKNCPSCRLRKCYEAGMTLGARKL [L5P]	-0.296 ± 0.071

Variant	abundance fitness
QKTCLICGDEASGCHYGALTCGSCKVFFKDAAEGKQKYLCASRNDCTIDKFRRKNCPSCRLRKCYEAGMTLGARKL [R30D]	-0.066 ± 0.11
QKTCLICGDEASGCHYGALTCGSCKVFFKRAARGKQKYLCASRNDCTIDKFRRKNCPSCRLRKCYEAGMTLGARKL [E33R]	-0.042 ± 0.043
QKTCLICGDEASGCHYGALTCGSCKVFFKRAAEGKQKYLCASRNDCTIDIFRRKNCPSCRLRKCYEAGMTLGARKL [K50I]	-0.26 ± 0.3
QKTCLICGDEASGCHYGALTCGSMKVFFKRAAEGKQKYLCASRNDCTIDKFRRKNCPSCRLRKCYEAGMTLGARKL [C24M]	-0.964 ± 0.075
QKTCLICGDEASGCHYGALTCGSCKVFFKRAAEGKQKYLCASRNDCTIDKFRRKKCPSCRLRKCYEAGMTLGARKL [N55K]	0.044 ± 0.077
QKTCLICGDEASGCHYGALTCGSCKVLFKRAAEGKQKYLCASRNDCTIDKFRRKNCPSCRLRKCYEAGMTLGARKL [F27L]	-0.766 ± 0.058
QKTCLICGDEASGCHYGALTCGSCKHFFKRAAEGKQKYLCASRNDCTIDKFRRKNCPSCRLRKCYEAGMTLGARKL [V26H]	0.039 ± 0.071
QKTCLICGDEASGCHYGALTCGSCKVIFKRAAEGKQKYLCASRNDCTIDKFRRKNCPSCRLRKCYEAGMTLGARKL [F27I]	-0.548 ± 0.12
QKTCLICGDEASGCHYGALTCGSCKVFFKRAAEGKQKYLCASRNDCTIDGFRRKNCPSCRLRKCYEAGMTLGARKL [K50G]	-0.146 ± 0.057
QKTCLICGDEASGCHYGALTCGSCKVFFKRAAEGKQKYLCASRNDCTIDKFRRKNCASCRLRKCYEAGMTLGARKL [P57A]	-0.011 ± 0.06
QKTCTICGDEASGCHYGALTCGSCKVFFKRAAEGKQKYLCASRNDCTIDKFRRKNCPSCRLRKCYEAGMTLGARKL [L5T]	-0.01 ± 0.05
QKTCLICGDEASGCHYGALTCGSCKVFFKRAAEGKQKSLCASRNDCTIDKFRRKNCPSCRLRKCYEAGMTLGARKL [Y38S]	-0.116 ± 0.061
QKTCLICGDEASGCHYGALTCGSCKVFFKRAAEGKQKYLCASRNDCTIDKFRRKNCPSCRLRNCYEAGMTLGARKL [K63N]	-0.127 ± 0.1
QKTCLICGDEASGCHYGALTCGSCKVFFKRAAEGWQKYLCASRNDCTIDKFRRKNCPSCRLRKCYEAGMTLGARKL [K35W]	-0.213 ± 0.082
QKTCLMCGDEASGCHYGALTCGSCKVFFKRAAEGKQKYLCASRNDCTIDKFRRKNCPSCRLRKCYEAGMTLGARKL [I6M]	-0.811 ± 0.24
IKTCLICGDEASGCHYGALTCGSCKVFFKRAAEGKQKYLCASRNDCTIDKFRRKNCPSCRLRKCYEAGMTLGARKL [Q1I]	0.198 ± 0.15
QKTCLICGDEASGCHYGALTCGSCKVFFKRAAEGKQKGLCASRNDCTIDKFRRKNCPSCRLRKCYEAGMTLGARKL [Y38G]	-0.222 ± 0.064
QKTCLICGDEASGCHYGALTCGSCKVFFKRAAEGKQKWLCASRNDCTIDKFRRKNCPSCRLRKCYEAGMTLGARKL [Y38W]	-0.239 ± 0.11
QKTCLICGDEASGCHYGALTCGSCKVFFKRAAEGKQKYLCASRNDCTIDKFRRKNCPSCRLRKCYEAGMTRGARKL [L71R]	-0.25 ± 0.066
QKTCLICGDEASGCHYGALTCGSCKVFFLRAAEGKQKYLCASRNDCTIDKFRRKNCPSCRLRKCYEAGMTLGARKL [K29L]	-0.331 ± 0.086
QKNCLICGDEASGCHYGALTCGSCKVFFKRAAEGKQKYLCASRNDCTIDKFRRKNCPSCRLRKCYEAGMTLGARKL [T3N]	0.035 ± 0.2
QKTCLICGDEASGCHYGALTCGSCKVFFKRAAEGKQKYLCASRYDCTIDKFRRKNCPSCRLRKCYEAGMTLGARKL [N44Y]	-0.274 ± 0.15
QKTCLICGDEASGCHYGALTCGSCKVFFKRAAEGKQKYGCASRNDCTIDKFRRKNCPSCRLRKCYEAGMTLGARKL [L39G]	-0.009 ± 0.03
QKTCLICGDEASGCHYGALICGSCKVFFKRAAEGKQKYLCASRNDCTIDKFRRKNCPSCRLRKCYEAGMTLGARKL [T20I]	-0.035 ± 0.22

Variant	abundance fitness
QKTCLICGDEASGCHYGALTCGSCKVFFKRAAEGKQKYLCASRNDCRIDKFRRKNCPSCRLRKCYEAGMTLGARKL [T47R]	-0.108 ± 0.031
QKTCLICGDEASGCHYGPLTCGSCKVFFKRAAEGKQKYLCASRNDCTIDKFRRKNCPSCRLRKCYEAGMTLGARKL [A18P]	-0.26 ± 0.052
QKTCLICGDEASGCHYGALTCGSCKVFFKRAAEGKQKYLCASRNDCTIDTFRRKNCPSCRLRKCYEAGMTLGARKL [K50T]	-0.068 ± 0.18
QKTCLICGDEASGCHYGALPCGSCKVFFKRAAEGKQKYLCASRNDCTIDKFRRKNCPSCRLRKCYEAGMTLGARKL [T20P]	-0.724 ± 0.09
QKTCLICGDEASGCHYGALTCGSCKVFFKRAAEGKQKYLCASRNDCTIDKFRRKNCPLCRLRKCYEAGMTLGARKL [S58L]	-0.251 ± 0.059
QKTCLICGDEASGCHYGALTCGSCKVFFKRAAEGKQKYLCASRKDCTIDKFRRKNCPSCRLRKCYEAGMTLGARKL [N44K]	-0.177 ± 0.099
QKTCLICQDEASGCHYGALTCGSCKVFFKRAAEGKQKYLCASRNDCTIDKFRRKNCPSCRLRKCYEAGMTLGARKL [G8Q]	-0.463 ± 0.17
QKTCLICGDEASGCHYGALTCGSCKVFFKRAAEGKQKYLCASRNDCTIDVFRRKNCPSCRLRKCYEAGMTLGARKL [K50V]	-0.063 ± 0.069
QKTCLICGWEASGCHYGALTCGSCKVFFKRAAEGKQKYLCASRNDCTIDKFRRKNCPSCRLRKCYEAGMTLGARKL [D9W]	-0.289 ± 0.079
QKTCLICGDEASGCHYGALTCGSCKVEFKRAAEGKQKYLCASRNDCTIDKFRRKNCPSCRLRKCYEAGMTLGARKL [F27E]	-0.73 ± 0.07
QKTCLICGDEASGCHYGALTCGSCKVFFKRAAEGKQKYLCRSRNDCTIDKFRRKNCPSCRLRKCYEAGMTLGARKL [A41R]	-0.051 ± 0.064
QKTCLICGDEASGCHYGALTCGSCKVFFKRAAEGKQKYLCASRNDCTIDKFRRKNCPSCRLRKCNEAGMTLGARKL [Y65N]	-0.062 ± 0.12
QKTCLICGDEASGCHYGALTCGMCKVFFKRAAEGKQKYLCASRNDCTIDKFRRKNCPSCRLRKCYEAGMTLGARKL [S23M]	-0.137 ± 0.035
QKTCLICGDEASGCHYGALTCGSCKVFFKRAAEGKQKYLCASRNDCTIDKFARKNCPSCRLRKCYEAGMTLGARKL [R52A]	-0.157 ± 0.08
QKTCLICGDEASGCHYGALTCGSCKVFFKRAAEGKQKYLCASRNDCTIDKFRRKNWPSCRLRKCYEAGMTLGARKL [C56W]	-0.964 ± 0.47
QKTCLICGDEASGCHYGALTCGSCKVFFKRAAEGKQKYHCASRNDCTIDKFRRKNCPSCRLRKCYEAGMTLGARKL [L39H]	-0.033 ± 0.041
QKTCLICGDEASGCHYGALTCGSAKVFFKRAAEGKQKYLCASRNDCTIDKFRRKNCPSCRLRKCYEAGMTLGARKL [C24A]	-0.96 ± 0.055
QKTCLICGDEASGCHYGALTCGSCKVFFKRAEEGKQKYLCASRNDCTIDKFRRKNCPSCRLRKCYEAGMTLGARKL [A32E]	0.036 ± 0.089
QKTCLICGDEASGCHYGALTCISCKVFFKRAAEGKQKYLCASRNDCTIDKFRRKNCPSCRLRKCYEAGMTLGARKL [G22I]	-0.262 ± 0.054
QKTCLICGDEASGCHYGALTIGSCKVFFKRAAEGKQKYLCASRNDCTIDKFRRKNCPSCRLRKCYEAGMTLGARKL [C21I]	-0.777 ± 0.11
QKTCLICGDEASGCGYGALTCGSCKVFFKRAAEGKQKYLCASRNDCTIDKFRRKNCPSCRLRKCYEAGMTLGARKL [H15G]	-0.151 ± 0.054
QKTCLICGDEASGCHYGALTCGSCKSFFKRAAEGKQKYLCASRNDCTIDKFRRKNCPSCRLRKCYEAGMTLGARKL [V26S]	0.038 ± 0.035
QKTCLICGDEASGCHYGALTCGSCKVFFKRAAEGKQKYLCASRNDCTIDKFRRKNGPSCRLRKCYEAGMTLGARKL [C56G]	-1.05 ± 0.29
QKTCLICGDEASGCHYGALTCGSCKVFFKRAAEGKQKYLCASRNDMTIDKFRRKNCPSCRLRKCYEAGMTLGARKL [C46M]	-0.914 ± 0.11
